In general, stoichiometry N refers to a count of units in the complex or per binding partner.

This data set concerns the molecule itself. The experiment in a line: dual-color colocalization single molecule localization microscopy (DCC-SMLM); HEK293T cells transiently transfected, fixed with cold methanol; each subunit C-terminally tagged with mVenus and PAmCherry; colocalization ratio compared with the calibrated DCC model (coefficient of mismatch M^2) and with reference proteins (two-sample K.-S. test).

B1: prestin (Slc26a5) tagged with mVenus and PAmCherry (natural protein, rat, UniProt Q9EPH0 1-744, looked up)
chain: MDHAEENEIPAETQKYLVERPIFSHPVLQERLHVKDKVTDSIGDKLKQAFTCTPKKVRNIIYMFLPITKWLPAYKFKEYVLGDLVSGISTGVLQLPQGLAFAMLAAVPPVFGLYSSFYPVIMYCFFGTSRHISIGPFAVISLMIGGVAVRLVPDDIVIPGGVNATNGTEARDALRVKVAMSVTLLSGIIQFCLGVCRFGFVAIYLTEPLVRGFTTAAAVHVFTSMLKYLFGVKTKRYSGIFSVVYSTVAVLQNVKNLNVCSLGVGLMVFGLLLGGKEFNERFKEKLPAPIPLEFFAVVMGTGISAGFNLHESYSVDVVGTLPLGLLPPANPDTSLFHLVYVDAIAIAIVGFSVTISMAKTLANKHGYQVDGNQELIALGICNSIGSLFQTFSISCSLSRSLVQEGTGGKTQLAGCLASLMILLVILATGFLFESLPQAVLSAIVIVNLKGMFMQFSDLPFFWRTSKIELTIWLTTFVSSLFLGLDYGLITAVIIALLTVIYRTQSPSYTVLGQLPDTDVYIDIDAYEEVKEIPGIKIFQINAPIYYANSDLYSSALKRKTGVNPAIIMGARRKAMRKYAKEVGNANIANATVVKVDAEVDGENATKPEEEDDEVKFPPIVIKTTFPEELQRFLPQGENIHTVILDFTQVNFMDSVGVKTLAGIVKEYGDVGIYVYLAGCSAQVVNDLTSNRFFENPALKELLFHSIHDAVLGSQVREAMAEQETTVLPPQEDMEPNATPTTPEA
notes: prestin (Slc26a5), rat motor protein of cochlear outer hair cells; The same construct was used for DCC-SMLM and hrCNE; also called SLC26A5/prestin; source: HEK293T, transfected; on fixed cells (DCC-SMLM) and in lysate (digitonin or DDM, hrCNE); not shown: mVenus, C-terminal, kept; PAmCherry, C-terminal, kept
With B1, the “stoichiometry N” value stood at 2.

B2: SLC26A3 tagged with mVenus and PAmCherry (natural protein, human, UniProt P40879 1-764, looked up)
chain: MIEPFGNQYIVARPVYSTNAFEENHKKTGRHHKTFLDHLKVCCSCSPQKAKRIVLSLFPIASWLPAYRLKEWLLSDIVSGISTGIVAVLQGLAFALLVDIPPVYGLYASFFPAIIYLFFGTSRHISVGPFPILSMMVGLAVSGAVSKAVPDRNATTLGLPNNSNNSSLLDDERVRVAAAASVTVLSGIIQLAFGILRIGFVVIYLSESLISGFTTAAAVHVLVSQLKFIFQLTVPSHTDPVSIFKVLYSVFSQIEKTNIADLVTALIVLLVVSIVKEINQRFKDKLPVPIPIEFIMTVIAAGVSYGCDFKNRFKVAVVGDMNPGFQPPITPDVETFQNTVGDCFGIAMVAFAVAFSVASVYSLKYDYPLDGNQELIALGLGNIVCGVFRGFAGSTALSRSAVQESTGGKTQIAGLIGAIIVLIVVLAIGFLLAPLQKSVLAALALGNLKGMLMQFAEIGRLWRKDKYDCLIWIMTFIFTIVLGLGLGLAASVAFQLLTIVFRTQFPKCSTLANIGRTNIYKNKKDYYDMYEPEGVKIFRCPSPIYFANIGFFRRKLIDAVGFSPLRILRKRNKALRKIRKLQKQGLLQVTPKGFICTVDTIKDSDEELDNNQIEVLDQPINTTDLPFHIDWNDDLPLNIEVPKISLHSLILDFSAVSFLDVSSVRGLKSILQEFIRIKVDVYIVGTDDDFIEKLNRYEFFDGEVKSSIFFLTIHDAVLHILMKKDYSTSKFNPSQEKDGKIDFTINTNGGLRNRVYEVPVETKF
notes: SLC26A3, human epithelial chloride-bicarbonate exchanger; The same construct was used for DCC-SMLM and hrCNE; also called epithelial chloride-bicarbonate exchanger SLC26A3; source: HEK293T, transfected; on fixed cells (DCC-SMLM) and in lysate (digitonin or DDM, hrCNE); not shown: mVenus, C-terminal, kept; PAmCherry, C-terminal, kept
Consider B2, for which the “stoichiometry N” value came to 2.
